Measured values: US20130005646A1 (Novo Nordisk, published 2013)
Starred links: 1 amine or outer side, 2 acyl side, 3 side chain; linkers in the order of their positions; H or OH if unused. Positions of bridges follow the written chain, without caps; N, C: chain ends. Groups on a side chain read outwards from the residue. No end group written: not given here. *: point of attachment. X1 = (S)‑4‑Carboxy‑4‑(19-carboxynonadecanoylamino)butyryl, O=C(O)CCCCCCCCCCCCCCCCCCC(=O)N[C@@H](CCC(=O)*)C(=O)O; C20 diacid = O=C(O)CCCCCCCCCCCCCCCCCCC(=O)*; γGlu = O=C(O)[C@H](CCC(=O)[*:2])N[*:1]

B1: N-alpha-[(S)-4-Carboxy-4-(19-carboxynonadecanoylamino)butyryl]-[Gly1,Glu14,Arg17,Pro37]-pramlintide (peptide)
peptide: {C20 diacid-γGlu}-GCNTATCATQRLAEFLRHSSNNFGPILPPTNVGSNTP-NH2
modifications: disulfide 2-7
SMILES: CC[C@H](C)[C@H](NC(=O)[C@@H]1CCCN1C(=O)CNC(=O)[C@H](Cc1ccccc1)NC(=O)[C@H](CC(N)=O)NC(=O)[C@H](CC(N)=O)NC(=O)[C@H](CO)NC(=O)[C@H](CO)NC(=O)[C@H](Cc1c[nH]cn1)NC(=O)[C@H](CCCNC(=N)N)NC(=O)[C@H](CC(C)C)NC(=O)[C@H](Cc1ccccc1)NC(=O)[C@H](CCC(=O)O)NC(=O)[C@H](C)NC(=O)[C@H](CC(C)C)NC(=O)[C@H](CCCNC(=N)N)NC(=O)[C@H](CCC(N)=O)NC(=O)[C@@H](NC(=O)[C@H](C)NC(=O)[C@@H]1CSSC[C@H](NC(=O)CNC(=O)CC[C@H](NC(=O)CCCCCCCCCCCCCCCCCCC(=O)O)C(=O)O)C(=O)N[C@@H](CC(N)=O)C(=O)N[C@@H]([C@@H](C)O)C(=O)N[C@@H](C)C(=O)N[C@@H]([C@@H](C)O)C(=O)N1)[C@@H](C)O)C(=O)N[C@@H](CC(C)C)C(=O)N1CCC[C@H]1C(=O)N1CCC[C@H]1C(=O)N[C@H](C(=O)N[C@@H](CC(N)=O)C(=O)N[C@H](C(=O)NCC(=O)N[C@@H](CO)C(=O)N[C@@H](CC(N)=O)C(=O)N[C@H](C(=O)N1CCC[C@H]1C(N)=O)[C@@H](C)O)C(C)C)[C@@H](C)O
B2: N-alpha-[(S)-4-Carboxy-4-(19-carboxynonadecanoylamino)butyryl]-[His1,Glu14,His17,Pro37]-pramlintide (peptide)
peptide: {C20 diacid-γGlu}-HCNTATCATQRLAEFLHHSSNNFGPILPPTNVGSNTP-NH2
modifications: disulfide 2-7; not fully specified; printed as N-alpha-[(S)-4-Carboxy-4-(19-carboxynonadecanoylamino)butyryl]-[His1,Glu14,His17,Pro37]-pramlintide
B3: N-alpha-[(S)-4-Carboxy-4-(19-carboxynonadecanoylamino)butyryl]-Gly-[His1,Glu14,Arg17,Pro37]-pramlintide (peptide)
peptide: {C20 diacid-γGlu}-GHCNTATCATQRLAEFLRHSSNNFGPILPPTNVGSNTP-NH2
modifications: disulfide 3-8
SMILES: CC[C@H](C)[C@H](NC(=O)[C@@H]1CCCN1C(=O)CNC(=O)[C@H](Cc1ccccc1)NC(=O)[C@H](CC(N)=O)NC(=O)[C@H](CC(N)=O)NC(=O)[C@H](CO)NC(=O)[C@H](CO)NC(=O)[C@H](Cc1c[nH]cn1)NC(=O)[C@H](CCCNC(=N)N)NC(=O)[C@H](CC(C)C)NC(=O)[C@H](Cc1ccccc1)NC(=O)[C@H](CCC(=O)O)NC(=O)[C@H](C)NC(=O)[C@H](CC(C)C)NC(=O)[C@H](CCCNC(=N)N)NC(=O)[C@H](CCC(N)=O)NC(=O)[C@@H](NC(=O)[C@H](C)NC(=O)[C@@H]1CSSC[C@H](NC(=O)[C@H](Cc2c[nH]cn2)NC(=O)CNC(=O)CC[C@H](NC(=O)CCCCCCCCCCCCCCCCCCC(=O)O)C(=O)O)C(=O)N[C@@H](CC(N)=O)C(=O)N[C@@H]([C@@H](C)O)C(=O)N[C@@H](C)C(=O)N[C@@H]([C@@H](C)O)C(=O)N1)[C@@H](C)O)C(=O)N[C@@H](CC(C)C)C(=O)N1CCC[C@H]1C(=O)N1CCC[C@H]1C(=O)N[C@H](C(=O)N[C@@H](CC(N)=O)C(=O)N[C@H](C(=O)NCC(=O)N[C@@H](CO)C(=O)N[C@@H](CC(N)=O)C(=O)N[C@H](C(=O)N1CCC[C@H]1C(N)=O)[C@@H](C)O)C(C)C)[C@@H](C)O
B4: N-epsilon1-[(S)-4-Carboxy-4-(19-carboxynonadecanoylamino)butyryl]-[Glu14,His17,His35]-pramlintide (peptide)
peptide: K([γGlu-C20 diacid])CNTATCATQRLAEFLHHSSNNFGPILPPTNVGSHTY-NH2
modifications: disulfide 2-7; N-terminus assumed
SMILES: CC[C@H](C)[C@H](NC(=O)[C@@H]1CCCN1C(=O)CNC(=O)[C@H](Cc1ccccc1)NC(=O)[C@H](CC(N)=O)NC(=O)[C@H](CC(N)=O)NC(=O)[C@H](CO)NC(=O)[C@H](CO)NC(=O)[C@H](Cc1c[nH]cn1)NC(=O)[C@H](Cc1c[nH]cn1)NC(=O)[C@H](CC(C)C)NC(=O)[C@H](Cc1ccccc1)NC(=O)[C@H](CCC(=O)O)NC(=O)[C@H](C)NC(=O)[C@H](CC(C)C)NC(=O)[C@H](CCCNC(=N)N)NC(=O)[C@H](CCC(N)=O)NC(=O)[C@@H](NC(=O)[C@H](C)NC(=O)[C@@H]1CSSC[C@H](NC(=O)[C@@H](N)CCCCNC(=O)CC[C@H](NC(=O)CCCCCCCCCCCCCCCCCCC(=O)O)C(=O)O)C(=O)N[C@@H](CC(N)=O)C(=O)N[C@@H]([C@@H](C)O)C(=O)N[C@@H](C)C(=O)N[C@@H]([C@@H](C)O)C(=O)N1)[C@@H](C)O)C(=O)N[C@@H](CC(C)C)C(=O)N1CCC[C@H]1C(=O)N1CCC[C@H]1C(=O)N[C@H](C(=O)N[C@@H](CC(N)=O)C(=O)N[C@H](C(=O)NCC(=O)N[C@@H](CO)C(=O)N[C@@H](Cc1c[nH]cn1)C(=O)N[C@H](C(=O)N[C@@H](Cc1ccc(O)cc1)C(N)=O)[C@@H](C)O)C(C)C)[C@@H](C)O
B5: N-alpha-[(S)-4-Carboxy-4-(19-carboxynonadecanoylamino)butyryl]-[His1,Glu14,Arg17,Pro37]-pramlintide (peptide)
peptide: X1-HCNTATCATQRLAEFLRHSSNNFGPILPPTNVGSNTP-NH2
modifications: disulfide 2-7
SMILES: CC[C@H](C)[C@H](NC(=O)[C@@H]1CCCN1C(=O)CNC(=O)[C@H](Cc1ccccc1)NC(=O)[C@H](CC(N)=O)NC(=O)[C@H](CC(N)=O)NC(=O)[C@H](CO)NC(=O)[C@H](CO)NC(=O)[C@H](Cc1c[nH]cn1)NC(=O)[C@H](CCCNC(=N)N)NC(=O)[C@H](CC(C)C)NC(=O)[C@H](Cc1ccccc1)NC(=O)[C@H](CCC(=O)O)NC(=O)[C@H](C)NC(=O)[C@H](CC(C)C)NC(=O)[C@H](CCCNC(=N)N)NC(=O)[C@H](CCC(N)=O)NC(=O)[C@@H](NC(=O)[C@H](C)NC(=O)[C@@H]1CSSC[C@H](NC(=O)[C@H](Cc2c[nH]cn2)NC(=O)CC[C@H](NC(=O)CCCCCCCCCCCCCCCCCCC(=O)O)C(=O)O)C(=O)N[C@@H](CC(N)=O)C(=O)N[C@@H]([C@@H](C)O)C(=O)N[C@@H](C)C(=O)N[C@@H]([C@@H](C)O)C(=O)N1)[C@@H](C)O)C(=O)N[C@@H](CC(C)C)C(=O)N1CCC[C@H]1C(=O)N1CCC[C@H]1C(=O)N[C@H](C(=O)N[C@@H](CC(N)=O)C(=O)N[C@H](C(=O)NCC(=O)N[C@@H](CO)C(=O)N[C@@H](CC(N)=O)C(=O)N[C@H](C(=O)N1CCC[C@H]1C(N)=O)[C@@H](C)O)C(C)C)[C@@H](C)O
B6: N-alpha-[(S)-4-Carboxy-4-(19-carboxynonadecanoylamino)butyryl]-[His1,Glu14,His17,His35]-pramlintide (peptide)
peptide: {C20 diacid-γGlu}-HCNTATCATQRLAEFLHHSSNNFGPILPPTNVGSHTY-NH2
modifications: disulfide 2-7; not fully specified; printed as N-alpha-[(S)-4-Carboxy-4-(19-carboxynonadecanoylamino)butyryl]-[His1,Glu14,His17,His35]-pramlintide

Tests used:
Assay in all cases: cell-based or functional assay
[1] = molecular target: T1, human amylin 3(a) receptor (human calcitonin receptor + RAMP-3) (human, UniProt P30988 25-474; O60896 24-148)
T1 sequence (looked up) 1: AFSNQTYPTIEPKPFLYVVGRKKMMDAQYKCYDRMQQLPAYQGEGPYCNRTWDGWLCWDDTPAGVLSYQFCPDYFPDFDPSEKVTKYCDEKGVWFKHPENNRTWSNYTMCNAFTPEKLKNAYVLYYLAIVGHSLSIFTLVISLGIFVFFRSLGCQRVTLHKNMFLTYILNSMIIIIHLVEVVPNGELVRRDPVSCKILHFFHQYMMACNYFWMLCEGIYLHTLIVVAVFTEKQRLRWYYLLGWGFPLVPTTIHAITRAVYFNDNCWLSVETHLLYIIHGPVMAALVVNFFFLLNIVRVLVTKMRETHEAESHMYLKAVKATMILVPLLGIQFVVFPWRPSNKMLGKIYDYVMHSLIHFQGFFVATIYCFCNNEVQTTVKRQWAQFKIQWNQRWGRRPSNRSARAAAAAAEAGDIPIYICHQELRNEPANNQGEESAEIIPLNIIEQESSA
T1 sequence (looked up) 2: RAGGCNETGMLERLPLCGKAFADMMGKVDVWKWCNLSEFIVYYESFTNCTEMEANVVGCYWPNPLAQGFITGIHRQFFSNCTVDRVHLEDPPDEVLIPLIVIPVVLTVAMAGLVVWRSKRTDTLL

[2] = molecular target: T2, human calcitonin (a) receptor (human, UniProt P30988 25-474)
T2 sequence (looked up): T1 sequence (looked up) 1

[3] = molecular target: T3, rat amylin 3(a) receptor (rat calcitonin(a) receptor + rat RAMP3) (rat, UniProt P32214 25-516; Q9JJ73 23-147)
T3 sequence (looked up) 1: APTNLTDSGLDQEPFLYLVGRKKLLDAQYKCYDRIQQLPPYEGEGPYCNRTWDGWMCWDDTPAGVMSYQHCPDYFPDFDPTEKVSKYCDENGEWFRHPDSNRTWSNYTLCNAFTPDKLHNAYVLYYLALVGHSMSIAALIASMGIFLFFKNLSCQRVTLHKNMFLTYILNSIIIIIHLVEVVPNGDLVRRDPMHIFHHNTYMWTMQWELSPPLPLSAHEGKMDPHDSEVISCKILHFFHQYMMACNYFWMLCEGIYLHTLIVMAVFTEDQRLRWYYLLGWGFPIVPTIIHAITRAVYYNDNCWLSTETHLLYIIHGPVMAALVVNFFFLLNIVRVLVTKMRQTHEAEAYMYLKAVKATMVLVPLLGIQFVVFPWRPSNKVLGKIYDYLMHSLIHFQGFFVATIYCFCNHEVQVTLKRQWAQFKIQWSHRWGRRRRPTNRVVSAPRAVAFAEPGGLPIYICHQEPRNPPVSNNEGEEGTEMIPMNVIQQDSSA
T3 sequence (looked up) 2: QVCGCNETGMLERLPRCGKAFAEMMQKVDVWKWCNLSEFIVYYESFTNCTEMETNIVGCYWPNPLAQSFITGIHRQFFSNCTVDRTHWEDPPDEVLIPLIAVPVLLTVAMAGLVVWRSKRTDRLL

[4] = molecular target: T4, rat calcitonin (a) receptor (rat, UniProt P32214 25-516)
T4 sequence (looked up): T3 sequence (looked up) 1

| Binder | Amylin receptor human EC50 [1] [nM] | CTa receptor human EC50 [2] [nM] | Amylin receptor rat EC50 [3] [nM] | CTa receptor rat EC50 [4] [nM] |
| --- | --- | --- | --- | --- |
| B1 | 0.036 | 0.055 | 0.3 | 0.37 |
| B2 | 0.0925 | 0.067 | 0.121 | 0.109 |
| B3 | 0.0255 | 0.0395 | 0.151 | 0.114 |
| B4 | 0.142 | 0.228 | 0.106 | 0.437 |
| B5 | 0.0325 | 0.0475 | 0.217 | 0.128 |
| B6 | 0.121 | 0.0855 | 0.224 | 1.04 |
